{
  "source": "patent US20210063414A1",
  "about": "“METHODS FOR PREVENTING AND/OR TREATING BONE LOSS CONDITIONS BY MODULATING IRISIN” (Dana-Farber Cancer Institute, Inc., priority 2018, published 2021)",
  "assay_in_all_cases": "Crosslinking/co-immunoprecipitation/mass spectrometry (TMT quantitative proteomics) to identify irisin receptors",
  "format_in_all_cases": "binding",
  "key": {"[1]": {"target": "T1, MLO-Y4 cell surface proteins (Mus musculus, UniProt Q08189)", "T1 construct": "endogenous in cells; host or cells: MLO-Y4", "T1 sequence (Q08189 1-693)": "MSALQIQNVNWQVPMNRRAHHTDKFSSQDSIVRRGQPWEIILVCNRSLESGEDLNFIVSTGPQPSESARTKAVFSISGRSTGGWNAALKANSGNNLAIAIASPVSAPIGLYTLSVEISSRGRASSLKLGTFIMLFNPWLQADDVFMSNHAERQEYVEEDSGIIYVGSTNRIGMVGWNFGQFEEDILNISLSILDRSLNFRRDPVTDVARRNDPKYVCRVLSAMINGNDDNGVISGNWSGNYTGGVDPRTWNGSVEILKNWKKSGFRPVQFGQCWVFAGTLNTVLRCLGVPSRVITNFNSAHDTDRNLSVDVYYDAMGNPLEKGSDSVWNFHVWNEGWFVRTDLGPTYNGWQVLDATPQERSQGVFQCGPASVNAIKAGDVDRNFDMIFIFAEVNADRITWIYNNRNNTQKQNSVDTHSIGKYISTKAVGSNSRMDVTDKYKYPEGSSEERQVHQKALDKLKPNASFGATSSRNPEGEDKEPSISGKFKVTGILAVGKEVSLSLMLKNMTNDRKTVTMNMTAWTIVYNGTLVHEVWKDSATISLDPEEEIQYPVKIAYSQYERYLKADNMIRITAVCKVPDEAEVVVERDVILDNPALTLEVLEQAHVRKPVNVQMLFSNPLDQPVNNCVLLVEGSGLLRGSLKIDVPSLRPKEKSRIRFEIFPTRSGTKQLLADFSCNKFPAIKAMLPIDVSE", "conditions": "co-precipitated protein Tgm3 (TGM3_MOUSE)", "procedure": "(§1) MLO-Y4 cells were seeded on 30×150 mm type-I collagen coated dishes as described in cell culture experiment. At 60% cell density, medium was switched to FreeStyle™ 293 Expression medium. After 4 hours incubation, the cells were chilled on ice for 10 minutes, followed by treatment of 10 nM his-tag irisin or his-tag adipsin for 20 minutes. The cells were then incubated with 1.5 mM DTSSP for 30 minutes on ice to do cross-linking, after washing with 15 ml cold PBS twice. The cross-linking was quenched by addition of a final concentration of 20 mM Tris-pH 7.5. The cells were then harvested and homogenized in 1 ml RIPA buffer containing proteaseinhibitor cocktailand phosphatase-inhibitor cocktail. Whole-cell lysates were homogenized by 10 times passages through a 22G needle fitted to a 3 ml syringe. Homogenized samples were rotated gently in cold room for 20 minutes followed by 15,000×g centrifugation for 10 minutes. After addition of a final concentration of 10 mM imidazole, supernatants were incubated with 100 μl Ni-NTA agarose for 1 hour. After centrifugation at 500×g for 1 minute, the supernatants were aspirated and 1 ml cold RIPA buffer containing 10 mM imidazole were added to the agarose. After 10 minutes rotation in cold room, the supernatants were aspirated and 1 ml cold RIPA buffer containing 30 mM imidazole were added to the agarose. After repeating the washing 3 times, 0.8 ml RIPA buffer containing 250 mM imidazole was added and the agarose was gently rotated in a cold room for 20 minutes. After centrifugation at 1000×g for 2 minutes, the supernatants were transferred to 1.5 ml tube and incubated with 100 μl 0.2% sodium deoxycholate and 100 μl 10% trichloroacetic acid in ice for 1 hour. After centrifugation at 12,000×g for 10 minutes at 4° C., the supernatants were removed and 1 ml cold acetone was added to the pellets followed by vortexing for 10 seconds. After one more washing with cold acetone, the pellets were dried at 37° C., and 39 μl PBS and 13 μl 4×NuPAGE LDS were added to the pellets with a final concentration of 5 mM DTT. Solubilized proteins were incubated at 65° C. for 20 minutes followed by incubation with a final concentration of 14 mM iodoacetamide for 45 minutes in the dark. 38 μl samples were loaded to 4-12% gradient SDS-PAGE for separation followed by Coomassie Blue staining. The gels were submitted to quantitative proteomics.\n(§2) For in-gel digestions, gels were stained with Coomassie Blue and were excised into 8 equal segments for control and irisin lanes. Gel pieces were destained and dehydrated with 100% acetonitrile, vacuumed dried, and digested in 25 mM HEPES (pH 8.5) with 500 ng sequencing grade trypsin (Promega) and incubated for an overnight at 37° C. (Shevchenko et al. (1996) Anal. Chem. 68:850-858). Digests were treated with 1% formic acid and purified using C18 Stage-Tips as previously described (Rappsilber et al. (2007) Nat. Protoc. 2:1896-1906). Peptides were eluted with 70% acetonitrile and 1% formic acid, then dried using a speedvac. Isobaric labeling of digested peptides was accomplished using 6-plex tandem mass tag (TMT) reagents (Thermo Fisher Scientific, Rockford, Ill.). Reagents, 5.0 mg, were dissolved in 252 μl acetonitrile (ACN) and 5 μl of the solution was added to the digested peptides dissolved in 25 μl of 200 mM HEPES, pH 8.5. After 1 hour at room temperature, the reaction was quenched by adding 1 μl of 5% hydroxylamine. Labeled peptides were combined and acidified prior to C18 Stage-Tips desalting.\n(§3) All LC-MS/MS experiments were performed on an Orbitrap Fusion™ Lumos mass spectrometer (Thermo Fisher Scientific, San Jose, Calif., USA) coupled with a Proxeon EASY-nLC™ 1200 LC pump (Thermo Fisher Scientific). Peptides were separated on a 100 μm inner diameter microcapillary column packed with 35 cm of Accucore™ C18 resin (1.8 μm, 100 Å, Thermo Fisher Scientific). […]"}, "[2]": {"target": "T2, MLO-Y4 cell surface proteins (Mus musculus, UniProt Q6ZPE2)", "T2 construct": "endogenous in cells; host or cells: MLO-Y4", "T2 sequence (Q6ZPE2 whole entry)": "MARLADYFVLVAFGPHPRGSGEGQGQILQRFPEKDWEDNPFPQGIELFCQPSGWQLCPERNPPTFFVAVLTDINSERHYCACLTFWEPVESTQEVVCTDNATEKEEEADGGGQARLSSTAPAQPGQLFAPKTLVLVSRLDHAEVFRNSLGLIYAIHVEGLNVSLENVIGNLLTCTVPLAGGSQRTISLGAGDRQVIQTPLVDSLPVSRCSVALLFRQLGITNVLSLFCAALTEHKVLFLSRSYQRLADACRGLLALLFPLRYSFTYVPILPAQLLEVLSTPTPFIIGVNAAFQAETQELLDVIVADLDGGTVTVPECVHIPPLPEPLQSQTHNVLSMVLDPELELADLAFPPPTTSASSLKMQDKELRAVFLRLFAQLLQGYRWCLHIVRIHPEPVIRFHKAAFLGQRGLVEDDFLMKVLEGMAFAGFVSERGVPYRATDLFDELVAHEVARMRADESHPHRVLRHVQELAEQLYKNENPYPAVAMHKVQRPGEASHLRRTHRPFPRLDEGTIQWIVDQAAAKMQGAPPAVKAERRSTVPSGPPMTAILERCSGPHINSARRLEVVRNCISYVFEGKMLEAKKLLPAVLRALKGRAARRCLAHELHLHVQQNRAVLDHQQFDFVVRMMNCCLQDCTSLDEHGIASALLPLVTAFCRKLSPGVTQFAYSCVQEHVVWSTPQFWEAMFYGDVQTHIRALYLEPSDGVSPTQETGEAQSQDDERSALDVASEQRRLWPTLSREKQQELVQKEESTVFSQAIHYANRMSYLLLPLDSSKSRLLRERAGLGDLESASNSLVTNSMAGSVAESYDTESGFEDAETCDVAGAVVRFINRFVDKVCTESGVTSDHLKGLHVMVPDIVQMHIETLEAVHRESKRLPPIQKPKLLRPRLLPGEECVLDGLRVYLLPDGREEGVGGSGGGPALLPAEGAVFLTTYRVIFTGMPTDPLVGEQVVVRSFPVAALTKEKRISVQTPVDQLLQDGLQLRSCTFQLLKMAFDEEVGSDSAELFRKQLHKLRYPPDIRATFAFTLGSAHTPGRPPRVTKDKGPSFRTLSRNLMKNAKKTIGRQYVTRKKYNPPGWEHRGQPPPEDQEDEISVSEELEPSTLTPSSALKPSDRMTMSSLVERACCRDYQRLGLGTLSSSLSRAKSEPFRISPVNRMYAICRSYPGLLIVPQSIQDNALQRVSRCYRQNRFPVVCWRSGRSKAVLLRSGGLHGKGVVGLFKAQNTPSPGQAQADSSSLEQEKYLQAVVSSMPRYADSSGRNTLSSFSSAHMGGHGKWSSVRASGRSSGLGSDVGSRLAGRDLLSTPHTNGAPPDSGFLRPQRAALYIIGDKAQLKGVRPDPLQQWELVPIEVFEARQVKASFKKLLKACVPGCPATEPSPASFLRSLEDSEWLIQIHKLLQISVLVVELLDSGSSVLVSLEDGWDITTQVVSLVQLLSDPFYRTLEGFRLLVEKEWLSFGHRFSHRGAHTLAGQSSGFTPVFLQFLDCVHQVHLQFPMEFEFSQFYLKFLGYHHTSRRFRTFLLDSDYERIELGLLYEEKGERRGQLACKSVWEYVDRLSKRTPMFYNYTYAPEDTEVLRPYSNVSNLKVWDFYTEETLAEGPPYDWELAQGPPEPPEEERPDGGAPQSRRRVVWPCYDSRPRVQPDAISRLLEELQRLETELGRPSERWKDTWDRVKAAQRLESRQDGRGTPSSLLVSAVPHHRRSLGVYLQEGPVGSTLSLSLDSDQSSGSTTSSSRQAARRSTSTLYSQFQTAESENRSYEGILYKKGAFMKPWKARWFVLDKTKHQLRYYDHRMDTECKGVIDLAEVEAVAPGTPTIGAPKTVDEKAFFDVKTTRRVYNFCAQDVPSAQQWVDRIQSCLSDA", "conditions": "co-precipitated protein Sbf1 (MTMR5_MOUSE)", "procedure": "as §1, §2, §3"}, "[3]": {"target": "T3, MLO-Y4 cell surface proteins (Mus musculus, UniProt Q9CY64)", "T3 construct": "endogenous in cells; host or cells: MLO-Y4", "T3 sequence (Q9CY64 3-295)": "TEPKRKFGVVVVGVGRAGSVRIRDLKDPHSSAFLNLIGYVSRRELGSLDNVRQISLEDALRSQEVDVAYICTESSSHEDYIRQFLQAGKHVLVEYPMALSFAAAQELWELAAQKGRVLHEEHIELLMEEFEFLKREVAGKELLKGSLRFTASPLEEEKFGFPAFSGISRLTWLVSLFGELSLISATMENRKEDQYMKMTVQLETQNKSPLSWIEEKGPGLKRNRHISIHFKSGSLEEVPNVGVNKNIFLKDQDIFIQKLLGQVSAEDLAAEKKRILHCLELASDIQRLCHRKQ", "conditions": "co-precipitated protein Blvra (BIEA_MOUSE)", "procedure": "as §1, §2, §3"}, "[4]": {"target": "T4, MLO-Y4 cell surface proteins (Mus musculus, UniProt Q8R1J9)", "T4 construct": "endogenous in cells; host or cells: MLO-Y4", "T4 sequence (Q8R1J9 27-321)": "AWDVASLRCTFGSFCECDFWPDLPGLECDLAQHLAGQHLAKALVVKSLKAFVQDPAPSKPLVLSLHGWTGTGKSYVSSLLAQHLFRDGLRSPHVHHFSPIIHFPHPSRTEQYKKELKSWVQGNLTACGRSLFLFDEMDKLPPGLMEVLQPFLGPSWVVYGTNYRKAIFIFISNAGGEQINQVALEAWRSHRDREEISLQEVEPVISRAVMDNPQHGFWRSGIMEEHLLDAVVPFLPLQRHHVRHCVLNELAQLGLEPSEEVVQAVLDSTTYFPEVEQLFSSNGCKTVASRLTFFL", "conditions": "co-precipitated protein Tor2a (TOR2A_MOUSE)", "procedure": "as §1, §2, §3"}, "[5]": {"target": "T5, MLO-Y4 cell surface proteins (Mus musculus, UniProt Q9WTP6)", "T5 construct": "endogenous in cells; host or cells: MLO-Y4", "conditions": "co-precipitated protein Ak2 (KAD2_MOUSE)", "procedure": "as §1, §2, §3"}},
  "data": [
    {"substance": "adipsin", "values": [
      {"measurement": "TMT signal-to-noise ratio", "setting": "[1]", "result": 274.388},
      {"measurement": "TMT signal-to-noise ratio", "setting": "[2]", "result": 71.1304},
      {"measurement": "TMT signal-to-noise ratio", "setting": "[3]", "result": 302.865},
      {"measurement": "TMT signal-to-noise ratio", "setting": "[4]", "result": 696.28},
      {"measurement": "TMT signal-to-noise ratio", "setting": "[5]", "result": 113.461}
    ]}
  ]
}
